According to patent US8410045B2, “Camptothecin-peptide conjugates and pharmaceutical compositions containing the same” (Drais Pharmaceuticals, Inc., priority 2006, dated 2013):
Read-outs that look alike come from different tables or passages of the source. Where a SMILES comes first, the peptide text is derived from it. Where no end group is shown, it is not given here. Side-chain parts run from the residue outwards. [ ]: non-standard residue; d: D form. The star is where a group is joined. ξ: configuration not given here. X9 = CCc1c2c(nc3ccc(OC(=O)[C@H]4CC[C@H](CNC(=O)CCOCCOCCOCCOCCNC(=O)CCN5C(=O)CC(*)C5=O)CC4)cc13)-c1cc3c(c(=O)n1C2)COC(=O)[C@]3(O)CC; X6 = CCc1c2c(nc3ccc(OC(=O)[C@H]4CC[C@H](CNC(=O)C5CCC(CN6C(=O)CC(*)C6=O)CC5)CC4)cc13)-c1cc3c(c(=O)n1C2)COC(=O)[C@]3(O)CC; X7 = CCc1c2c(nc3ccc(OC(=O)CCCCCCCCCCN4C(=O)CC(*)C4=O)cc13)-c1cc3c(c(=O)n1C2)COC(=O)[C@]3(O)CC; X5 = CCc1c2c(nc3ccc(OC(=O)CCN4C(=O)CC(*)C4=O)cc13)-c1cc3c(c(=O)n1C2)COC(=O)[C@]3(O)CC; X8 = CC[C@@]1(O)C(=O)OCc2c1cc1n(c2=O)Cc2cc3cc(OC(=O)CCN4C(=O)CC(*)C4=O)ccc3nc2-1; SN38 = active drug (irinotecan metabolite) conjugated via the linker; MIC = not defined here; ξC = NC(CS)C(=O)O

How the values were obtained:
[1] = Stability of conjugates in citrated plasma at 37° C. (half life time, HPLC fluorescence); format: in vitro ADME; details: dog, read-out: Dog Plasma Half life time
Protocol: (§1) The stability of the conjugates was tested in citrated plasma (10% (v/v) sodium citrate buffer, 0.106M) from different species (see Table 1 below). The conjugates at 2.55 μM were incubated at 37° C. in plasma. Samples were analysed using the HPLC fluorescence method described below (see chromatographic equipment and conditions) following TFA/acetonitrile extraction and the amount of free camptothecin, analogs or derivatives thereof (e.g. SN38) released by the conjugates was measured.
(§2) Chromatographic equipment and conditions: 150 μL of each sample were placed in 1.5 mL micro-centrifuge tubes. 450 μL of 5% (v/v) TFA in H2O was added to each tube and the mixture was vortexed for 5 seconds. Samples were then centrifuged at 16000 g, 3 minutes at +4° C. 100 μL of supernatant were placed in 1.5 mL micro-centrifuge tubes. Methanol (100 μL) was then immediately added and vortexed for 5 seconds. Samples were then centrifuged at 16000 g, 3 minutes at room temperature. 150 μL of supernatant were recovered for HPLC analysis. Conjugates, metabolites and camptothecin derivative (i.e. SN38) were separated by high-performance liquid chromatography (HPLC; Agilent 1100 series equipped with a fluorescence detector) using a 4.6×100 mm ([…] particle size) Luna C18(2) column (Phenomenex ref. 00D-4251-E0, Le Pecq, France). The aqueous component of the mobile phase (A) was 0.1% (v/v) TFA in water. The organic modifier (B) was acetonitrile containing 0.1% (v/v) TFA. For the conjugate and its metabolites an elution gradient increasing linearly the proportion of B from 15 to 37% in 2 min, from 37 to 47% in 6 min, followed by 2 min at 90% was applied with a constant flow rate of 1.2 mL/min. The proportion of B was then returned to the initial condition for 3.0 min.
(§3) The half life time of conjugate corresponds to the time necessary to have 50% by mole of free camptothecin, analogs or derivatives thereof released by the conjugates of the invention. In human plasma, the half life time of conjugate DPV1047-linker #1-SN38 (less than 5 mins) was shorter than that of conjugate DPV1047-linker #2-SN38 (6-7 mins), which, in turn, was shorter than that of conjugate DPV1047-linker #3-SN38 (12 mins).
(§4) As in Example II, the stability of these conjugates was tested in either human or dog plasma. Following incubation at 37° C., samples were analyzed after a TFA acetonitrile extraction by the HPLC fluorescence method described in Example II. The in vitro cytotoxicity (IC50) of these compounds was also evaluated.

[2] = as above; format: in vitro ADME, human; details: for half-life: human, plasma
Protocol: as §1, §2, §3, §4

[3] = test system: HCT 116 human colorectal carcinoma tumor
[4] = Table 10, SN38 conjugates, read-out: Human Plasma Half life time
[5] = DPV1047-linker-SN38, 2.55 μM, citrated plasma
[6] = DPV1047-linker-SN38, 2.55 μM, citrated plasma, read-out: Half life time, Human plasma
[7] = Table 14, 10-Hydroxycamptothecin conjugates
[8] = Table 14, 10-Hydroxycamptothecin conjugates, read-out: Human Plasma Half life time

Compound	half-life ([1]; Table 10, SN38 conjugates) [min]	half-life [2, 4] [min]	half-life [2, 6] [min]	also measured
CCc1c2c(nc3ccc(OC(=O)[C@H]4CC[C@H](CNC(=O)C5CCC(CN6C(=O)CC(SC[C@H](NC(=O)[C@H](CCC(N)=O)NC(=O)[C@@H]7CCCN7C(=O)[C@@H]7CCCN7C(=O)[C@H](CCCNC(=N)N)NC(=O)[C@H](CCCNC(=N)N)NC(=O)[C@H](CCCNC(=N)N)NC(=O)[C@H](CCC(N)=O)NC(=O)[C@H](CCCNC(=N)N)NC(=O)[C@H](CCCNC(=N)N)NC(=O)[C@H](CCCCN)NC(=O)[C@H](CCCCN)NC(=O)[C@H](CCCNC(=N)N)NC(=O)CN)C(=O)O)C6=O)CC5)CC4)cc13)-c1cc3c(c(=O)n1C2)COC(=O)[C@]3(O)CC (stereo partly drawn) [Tat-linker #5-SN38]	122	335	–	–
CCc1c2c(nc3ccc(OC(=O)[C@H]4CC[C@H](CNC(=O)C5CCC(CN6C(=O)CC(SC[C@H](NC(=O)[C@@H]7CCCN7C(=O)[C@H](CC(=O)O)NC(=O)[C@H](CCCNC(=N)N)NC(=O)[C@H](CCCCN)NC(=O)[C@H](CCCCN)NC(=O)CNC(=O)[C@H](CC(C)C)NC(=O)[C@H](CCCCN)NC(=O)CNC(=O)[C@H](CCCCN)NC(=O)[C@H](CCCCN)NC(=O)[C@H](CCCCN)NC(=O)[C@H](CCCNC(=N)N)NC(=O)[C@H](CCCCN)NC(=O)CN)C(=O)O)C6=O)CC5)CC4)cc13)-c1cc3c(c(=O)n1C2)COC(=O)[C@]3(O)CC (stereo partly drawn) [DPV7-linker #5-SN38] (H-GKRKKKGKLGKKRDPC(X6)-OH; N-terminus and C-terminus assumed)	112	162	–	–
CCc1c2c(nc3ccc(OC(=O)CCCCCCCCCCN4C(=O)CC(SC[C@H](N)C(=O)N[C@H](C(=O)N[C@@H](CCCCN)C(=O)N[C@@H](CCCNC(=N)N)C(=O)NCC(=O)N[C@@H](CC(C)C)C(=O)N[C@@H](CCCCN)C(=O)N[C@@H](CC(C)C)C(=O)N[C@@H](CCCNC(=N)N)C(=O)N[C@@H](Cc5c[nH]cn5)C(=O)N[C@H](C(=O)N[C@@H](CCCNC(=N)N)C(=O)N5CCC[C@H]5C(=O)N[C@@H](CCCNC(=N)N)C(=O)N[C@H](C(=O)N[C@H](C(=O)N[C@@H](CCCNC(=N)N)C(=O)N[C@@H](CCSC)C(=O)N[C@@H](CC(=O)O)C(=O)N[C@H](C(=O)O)C(C)C)[C@@H](C)O)C(C)C)C(C)C)C(C)C)C4=O)cc13)-c1cc3c(c(=O)n1C2)COC(=O)[C@]3(O)CC (stereo partly drawn) [DPV1047-linker #3-SN38] (H-C(X7)VKRGLKLRHVRPRVTRMDV-OH)	–	–	12	Half life time, Human plasma [2, 5]: 8 to 9 min
CC[C@@]1(O)C(=O)OCc2c1cc1n(c2=O)Cc2cc3cc(OC(=O)CCCCCNC(=O)C4CCC(CN5C(=O)CC(SC[C@H](NC(=O)[C@H](CCC(N)=O)NC(=O)[C@@H]6CCCN6C(=O)[C@@H]6CCCN6C(=O)[C@H](CCCNC(=N)N)NC(=O)[C@H](CCCNC(=N)N)NC(=O)[C@H](CCCNC(=N)N)NC(=O)[C@H](CCC(N)=O)NC(=O)[C@H](CCCNC(=N)N)NC(=O)[C@H](CCCNC(=N)N)NC(=O)[C@H](CCCCN)NC(=O)[C@H](CCCCN)NC(=O)[C@H](CCCNC(=N)N)NC(=O)CN)C(=O)O)C5=O)CC4)ccc3nc2-1 (stereo partly drawn) [Tat-linker #4-10 Hydroxycamptothecin]	–	–	–	half-life [1, 7]: 20 min; half-life [2, 8]: 7.3 min
CC[C@@]1(O)C(=O)OCc2c1cc1n(c2=O)Cc2cc3cc(OC(=O)CCN4C(=O)CC(SC[C@H](N)C(=O)N[C@H](C(=O)N[C@@H](CCCCN)C(=O)N[C@@H](CCCNC(=N)N)C(=O)NCC(=O)N[C@@H](CC(C)C)C(=O)N[C@@H](CCCCN)C(=O)N[C@@H](CC(C)C)C(=O)N[C@@H](CCCNC(=N)N)C(=O)N[C@@H](Cc5c[nH]cn5)C(=O)N[C@H](C(=O)N[C@@H](CCCNC(=N)N)C(=O)N5CCC[C@H]5C(=O)N[C@@H](CCCNC(=N)N)C(=O)N[C@H](C(=O)N[C@H](C(=O)N[C@@H](CCCNC(=N)N)C(=O)N[C@@H](CCSC)C(=O)N[C@@H](CC(=O)O)C(=O)N[C@H](C(=O)O)C(C)C)[C@@H](C)O)C(C)C)C(C)C)C(C)C)C4=O)ccc3nc2-1 (stereo partly drawn) [DPV1047-linker #1-10 Hydroxycamptothecin] (H-C(X8)VKRGLKLRHVRPRVTRMDV-OH)	–	–	–	half-life [1, 7]: 3 min; half-life [2, 8]: < 3 min
PolyE(16)-MIC-SN38: non cell-penetrating PolyE(16) peptide coupled via MIC linker to SN38 (EEEEEEEEEEEEEEEEC([MIC-SN38]); not fully specified; reading uncertain; also: SN38 attached through MIC linker at Cys) [reference compound]	–	–	–	activity in the HCT 116 model ([3]; 40 μmol/kg, Q4D×3): not active; TGI (100-T/C %) ([3]; Table 5, Q4Dx3, DPV1047-BCH-SN38 30, PolyE(16)-MIC-SN38 40, irinotecan 48 μmol/kg): 30%
CCc1c2c(nc3ccc(OC(=O)CCN4C(=O)CC(SC[C@H](N)C(=O)N[C@@H](CCCNC(=N)N)C(=O)N[C@@H](CCC(N)=O)C(=O)N[C@H](C(=O)N[C@@H](CCCCN)C(=O)N[C@H](C(=O)N[C@@H](Cc5c[nH]c6ccccc56)C(=O)N[C@@H](Cc5ccccc5)C(=O)N[C@@H](CCC(N)=O)C(=O)N[C@@H](CC(N)=O)C(=O)N[C@@H](CCCNC(=N)N)C(=O)N[C@@H](CCCNC(=N)N)C(=O)N[C@@H](CCSC)C(=O)N[C@@H](CCCCN)C(=O)N[C@@H](Cc5c[nH]c6ccccc56)C(=O)N[C@@H](CCCCN)C(=O)N[C@@H](CCCCN)C(=O)O)[C@@H](C)CC)[C@@H](C)CC)C4=O)cc13)-c1cc3c(c(=O)n1C2)COC(=O)[C@]3(O)CC (stereo partly drawn) [Penetratin-linker #1-SN38]	16.5	< 3	–	–
CCc1c2c(nc3ccc(OC(=O)[C@H]4CC[C@H](CNC(=O)CCOCCOCCOCCOCCNC(=O)CCN5C(=O)CC(SC[C@H](N)C(=O)N[C@H](C(=O)N[C@@H](CCCCN)C(=O)N[C@@H](CCCNC(=N)N)C(=O)NCC(=O)N[C@@H](CC(C)C)C(=O)N[C@@H](CCCCN)C(=O)N[C@@H](CC(C)C)C(=O)N[C@@H](CCCNC(=N)N)C(=O)N[C@@H](Cc6c[nH]cn6)C(=O)N[C@H](C(=O)N[C@@H](CCCNC(=N)N)C(=O)N6CCC[C@H]6C(=O)N[C@@H](CCCNC(=N)N)C(=O)N[C@H](C(=O)N[C@H](C(=O)N[C@@H](CCCNC(=N)N)C(=O)N[C@@H](CCSC)C(=O)N[C@@H](CC(=O)O)C(=O)N[C@H](C(=O)O)C(C)C)[C@@H](C)O)C(C)C)C(C)C)C(C)C)C5=O)CC4)cc13)-c1cc3c(c(=O)n1C2)COC(=O)[C@]3(O)CC (stereo partly drawn) [DPV1047-linker #6-SN38] (H-C(X9)VKRGLKLRHVRPRVTRMDV-OH; N-terminus and C-terminus assumed)	–	–	30	–
CCc1c2c(nc3ccc(OC(=O)[C@H]4CC[C@H](CNC(=O)C5CCC(CN6C(=O)CC(SCC(N)C(=O)N[C@H](CCCCN)C(=O)N[C@H](CCCNC(=N)N)C(=O)NCC(=O)N[C@H](CC(C)C)C(=O)N[C@H](CCCCN)C(=O)N[C@H](CC(C)C)C(=O)N[C@H](CCCNC(=N)N)C(=O)N[C@H](Cc7c[nH]cn7)C(=O)O)C6=O)CC5)CC4)cc13)-c1cc3c(c(=O)n1C2)COC(=O)[C@]3(O)CC (stereo partly drawn) [DPV51(D)-linker #5-SN38] (H-[ξC](X6)[dK][dR]G[dL][dK][dL][dR][dH]-OH; N-terminus and C-terminus assumed)	–	–	–	half-life ([1]; Table 12, CPP-linker #5-SN38 conjugates incl. D conformation): 175 min; half-life ([2]; Table 12, CPP-linker #5-SN38 conjugates incl. D conformation, read-out: Human Plasma Half life time): 267 min
CCc1c2c(nc3ccc(OC(=O)CCN4C(=O)CC(SC[C@H](N)C(=O)N[C@H](C(=O)N[C@@H](CCCCN)C(=O)N[C@@H](CCCNC(=N)N)C(=O)NCC(=O)N[C@@H](CC(C)C)C(=O)N[C@@H](CCCCN)C(=O)N[C@@H](CC(C)C)C(=O)N[C@@H](CCCNC(=N)N)C(=O)N[C@@H](Cc5c[nH]cn5)C(=O)N[C@H](C(=O)N[C@@H](CCCNC(=N)N)C(=O)N5CCC[C@H]5C(=O)N[C@@H](CCCNC(=N)N)C(=O)N[C@H](C(=O)N[C@H](C(=O)N[C@@H](CCCNC(=N)N)C(=O)N[C@@H](CCSC)C(=O)N[C@@H](CC(=O)O)C(=O)N[C@H](C(=O)O)C(C)C)[C@@H](C)O)C(C)C)C(C)C)C(C)C)C4=O)cc13)-c1cc3c(c(=O)n1C2)COC(=O)[C@]3(O)CC (stereo partly drawn) [DPV1047-linker #1-SN38] (H-C(X5)VKRGLKLRHVRPRVTRMDV-OH)	11.3	< 3	< 5	Half life time, Human plasma [2, 5]: <5 min
